In the emibetuzumab library of Makowski et al. (2022):

B1: VH:VL chains; a variant is named by its letters at X, in order (parent)
chain 1: QVQLVQSGAEVKKPGASVKVSCKASGYTFTDYXMHWVRQAPGQGLEWMGXVNPNXXXTTYNQKFEGRVTMTTDTSTSTAYMELRSLRSDDTAVYYCARXNXLDXWGQGTTVTVSS
chain 2: DIQMTQSPSSLSASVGDRVTITCSVSSSVSSIYLHWYQQKPGKAPKLLIYSTSNLASGVPSRFSGSGSGTDFTLTISSLQPEDFATYYCQVYSGYPLTFGGGTKVEIK

Variants of: B1
Experiment: yeast display scFab, FACS + sequencing
Summary of the method: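 Heavy-chain CDR mutant scFab yeast surface library, FACS-sorted after labelling with biotinylated ovalbumin (260 μg/mL in PBSB, 3 h, room temperature) or soluble membrane proteins (130 μg/mL, 20 min on ice), plus anti-Myc. Gates collected the top 25% and bottom 10% of binders, and samples from two replicates were deep sequenced. Non-specific binding call: a sequence was positive if found in ≥3 of 4 positive samples (membrane protein and ovalbumin pooled) and no negatives, and negative by the converse rule.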

| Variant | non-specific binding call |
| --- | --- |
| VTKAASWV | no binding |
| YTGRAALA | no binding |
| VTGTGDAD | no binding |
| VTGTGDAV | no binding |
| FTGTSAAF | binds |
| YTGTSAVA | no binding |
| YTGTSAVV | no binding |
| YTGTSAVS | no binding |
| FTRESFAA | binds |
| ATGGGYVA | binds |
| YTGKSVAV | binds |
| VTGGDDVY | no binding |
| YTRGADGA | no binding |
| YTRGADGV | no binding |
| YTRGADGS | no binding |
| FTGTGSGA | no binding |
| ATGTGSGA | no binding |
| VTGRGDLA | no binding |
| VTKTGDAV | no binding |
| DTKAAAGD | no binding |
| STGGNDAD | no binding |
| VTGTGSSD | no binding |
| VTGTGSSA | no binding |
| YTRGAAGY | no binding |
| YTRGAAGV | no binding |

| Variant | non-specific binding call |
| --- | --- |
| DTKRTAVA | binds |
| VTGKGDGV | no binding |
| DTKAADWY | no binding |
| DTKAADWV | no binding |
| VTGGSDVY | no binding |
| FTGRGAAA | binds |
| YTGTSDVS | no binding |
| YTGTSDVY | no binding |
| YTGGNDAD | no binding |
| YTGRGSGV | binds |
| VTGTGSLV | no binding |
| VTGTGSLD | no binding |
| DTGTGDSA | no binding |
| VTGTGDWF | no binding |
| VTGTGDWV | no binding |
| VTKETFSF | no binding |
| VTGGGDGS | no binding |
| VTGGGDGA | no binding |
| YTRGASGA | no binding |
| DTGGGAWD | no binding |
| STGGDDGF | no binding |
| STGGDDGA | no binding |
| VTGGDYAV | no binding |
| DTKRTAGD | no binding |
| YTRGAAVA | no binding |

| Variant | non-specific binding call |
| --- | --- |
| DTGTGAGV | no binding |
| DTGTGAGD | no binding |
| YTGTSSSV | no binding |
| YTGTSSSA | no binding |
| DTGTGSWD | no binding |
| YTKGTSVA chain 1 E65K | binds |
| ATRGADAV | no binding |
| YTREGAVA | no binding |
| YTKEASGY | binds |
| YTKTSSVD | binds |
| DTREGDGA | no binding |
| VTGTSDLY | no binding |
| VTGTGAGV | no binding |
| YTKKTFSY | binds |
| VTGTGDGA | no binding |
| VTGTGDGV | no binding |
| STKRSFWA | binds |
| DTKAASGV | no binding |
| YTGTSSGA | no binding |
| VTGGDSVD | no binding |
| FTGRAAAV | no binding |
| VTKTGDVA | no binding |
| VTGTASSV | no binding |
| YTKRSSGA | binds |
| VTGGDDSA | no binding |

| Variant | non-specific binding call |
| --- | --- |
| DTGTGDAA | no binding |
| DTGTSDLY | no binding |
| YTGGDSVD | no binding |
| YTGGDSVA | no binding |
| ATKTAFVS chain 1 M34I | no binding |
| YTGGDDGF | no binding |
| DTGTGASD | no binding |
| FTGRAYGF | binds |
| VTRGADGV | no binding |
| FTKGSAGY | binds |
| FTGRGAVA | binds |
| DTGGGDLA | no binding |
| DTKAADVA | no binding |
| DTGTGDGV | no binding |
| YTRGAALA | no binding |
| YTKRGDWD | binds |
| VTGTGSVD | no binding |
| STGTSDLY | no binding |
| VTGGDSWF | no binding |
| DTGGGAGA | no binding |
| DTKGDSVS | no binding |
| VTGRAAWV | no binding |
| FTRAGAAA | binds |
| ATGRADWA | no binding |
| YTKETAAD | binds |

| Variant | non-specific binding call |
| --- | --- |
| YTGGDDWV | no binding |
| DTREGDAV | no binding |
| DTGTGALV | no binding |
| YTGGGDGV | no binding |
| ATGGDDGF | no binding |
| DTGGDDGF | no binding |
| VTGTGDVY | no binding |
| VTGTGDVV | no binding |
| VTGGDSLV | no binding |
| YTGTSDAV | no binding |
| VTGTGAAV | no binding |
| VTGTGAAD | no binding |
| VTKGGSSA | no binding |
| ATGGDDWF | no binding |
| ATGRASLD | no binding |
| DTREGAVV | no binding |
| VTKTGAAA | no binding |
| YTRGAASD | no binding |
| YTGTSSAD | no binding |
| VTGTSSLD | no binding |
| DTGGSASA | no binding |
| YTGTSDWV | no binding |
| YTGTSDWY | no binding |
| FTKASYVY | binds |
| YTRAGAAA | binds |

| Variant | non-specific binding call |
| --- | --- |
| DTGTSAAF | binds |
| YTRAGSAA | binds |
| FTKAASWV | no binding |
| VTREGAVA | no binding |
| STGGDDVY | no binding |
| VTGTGAVY | no binding |
| VTGTGAVV | no binding |
| VTGRAALA | no binding |
| VTGTSDVA | no binding |
| STGRADWA | no binding |
| DTRGADAV | no binding |
| DTGGGDAY | no binding |
| DTGGGDAA | no binding |
| DTGGGDAV | no binding |
| YTKAASWV | no binding |
| YTGTSAGV | no binding |
| YTGTSAGD | no binding |
| ATGGDSGD | no binding |
| YTRGADWY | no binding |
| YTRGADWA | no binding |
| DTGRADWA | no binding |
| YTGRGSLD | binds |
| ATKGAAVA | no binding |
| FTRGADAV | no binding |
| VTGGDSGD | no binding |

| Variant | non-specific binding call |
| --- | --- |
| DTGTGSSA | no binding |
| YTGTSASD | no binding |
| STGTGSGA | no binding |
| DTKAADGV | no binding |
| YTGTSDLV | no binding |
| YTGTSDLD | no binding |
| YTGTSDLA | no binding |
| DTKAAAVV | no binding |
| STGGGDGV | no binding |
| STGTSDVF | no binding |
| ATGRAAGD | no binding |
| YTGTSAWA | no binding |
| VTGRGDVA | no binding |
| VTGRGDVF | no binding |
| DTGGDDWF | no binding |
| YTGTGAVF | no binding |
| DTKAASSA | no binding |
| DTKAASSS | no binding |
| STGTGALA | no binding |
| ATGRADGV | no binding |
| STRGADAV | no binding |
| STGRAALA | no binding |
| VTGGDSSD | no binding |
| VTGGDSSA | no binding |
| VTGGDDGY | no binding |

| Variant | non-specific binding call |
| --- | --- |
| VTKESAAV | no binding |
| VTGGGASF | no binding |
| DTGTGDVF | no binding |
| DTGTGDVA | no binding |
| FTGTSDLY | no binding |
| DTGKDAGD | no binding |
| FTREASAV | binds |
| STGKGSGV | no binding |
| VTRGADAA | no binding |
| VTRGADAV | no binding |
| YTRGADVA | no binding |
| YTRGADVV | no binding |
| YTGTGSGA | no binding |
| DTKAASWA | no binding |
| DTKAASWV | no binding |
| YTGTSDGV | no binding |
| VTGGDSAS | no binding |
| YTGGDDVD | no binding |
| YTGGDDVY | no binding |
| YTGGDDVV | no binding |
| YTKRGSAA | binds |
| YTKTGDAV | no binding |
| FTGRGSAD | binds |
| YTGRGSAA | binds |
| DTGTGSVD | no binding |

| Variant | non-specific binding call |
| --- | --- |
| STGTGYVF | no binding |
| DTGTGSGA | no binding |
| ATKAASWV | no binding |
| DTGRGSGV | no binding |
| DTREGDVD | no binding |
| DTREGDVY | no binding |
| DTREGDVA | no binding |
| STKAASWV | no binding |
| FTGRGAGV | binds |
| YTKRSAVV | binds |
| ATGRADVY | no binding |
| VTGTGSGD | no binding |
| VTGTGSGF | no binding |
| VTGGDDWV | no binding |
| VTGGDDWY | no binding |
| VTGGDDWF | no binding |
| YTRGADLA | no binding |
| YTGTSSLD | no binding |
| DTGTGDWV | no binding |
| VTGTGYVF | no binding |
